pKd: −log10 of the molar value.
Target: FcγRIIIa on human PBMCs expressing heterozygous V158/F158 FcγRIIIa (human) (UniProt P08637)
Experiment: cell-based or functional assay

Row | ADCC EC50, DoHH-2 targets, PBMCs | ADCC log(EC50), DoHH-2 targets, PBMCs | Substance
1 | 3 ng/mL | 0.49 | alemtuzumab S239D/I332E (antibody)
2 | 4 ng/mL | 0.6 | alemtuzumab V264I/I332E (antibody)

Target: extracellular region of human F158 FcγRIIIa, C-terminal 6xHis-tag and GST-tag (human) (UniProt P08637)
Experiment: SPR, receptor immobilized, antibody flowed over

Row | pKd | Substance
3 | 6.14 | alemtuzumab, wild type (antibody)

Target: extracellular region of human V158 FcγRIIIa, C-terminal 6xHis-tag and GST-tag (human) (UniProt P08637)
Experiment: SPR, receptor immobilized, antibody flowed over

Row | pKd | Substance
4 | 7.17 | alemtuzumab, wild type (antibody)

Target: extracellular region of human V158 FcγRIIIa, C-terminal 6xHis-tag and GST-tag (human) (UniProt P08637)
Experiment: SPR

Row | Fold WT | Substance
5 | 5.5 fold | alemtuzumab E258H (antibody)
6 | 384 fold | alemtuzumab E272H (antibody)
7 | 1.41 fold | alemtuzumab R255Y (antibody)
8 | 2.62 fold | alemtuzumab S267E (antibody)
9 | 1.86 fold | alemtuzumab T260H (antibody)
10 | 1.51 fold | alemtuzumab V284E (antibody)

Second part, the substance before the results:

Row | Substance | Fold WT
11 | alemtuzumab E258Y (antibody) | 1.77 fold
12 | alemtuzumab E272R (antibody) | 1.38 fold
13 | alemtuzumab E283H (antibody) | 2.31 fold
14 | alemtuzumab E283L (antibody) | 2.56 fold
15 | alemtuzumab H268D (antibody) | 5.66 fold
16 | alemtuzumab K246H (antibody) | 22.4 fold
17 | alemtuzumab K246Y (antibody) | 7.07 fold
18 | alemtuzumab S304T (antibody) | 12.8 fold

Source: US20140073768A1
